According to patent US20120027774A1 (DYAX, published 2012):
Each block holds one binder with its values, some of them ahead of it.

Legend:
[1] = biological target: human MMP-9 (human, UniProt P14780 107-707, limits assumed); assay: cell-based or functional assay
[2] = biological target: T1, Human MMP-9 catalytic domain (BIOMOL, SE-244) (human, UniProt P14780 107-445, limits assumed); assay: cell-based or functional assay
[3] = biological target: T1, Human MMP-9 catalytic domain (BIOMOL, …); assay: cell-based or functional assay; remark: listed apart in the source
[4] = biological target: T1, Human MMP-9 catalytic domain (BIOMOL, …); assay: cell-based or functional assay; remark: listed apart in the source
[5] = biological target: T1, Human MMP-9 catalytic domain (BIOMOL, …); assay: cell-based or functional assay; remark: listed apart in the source
[6] = biological target: T1, Human MMP-9 catalytic domain (BIOMOL, …); assay: enzyme inhibition, competitive model; intercept of IC50 against substrate concentration (3 to 15 µM), 0.6 nM enzyme
Description: Experiments were performed to characterize the interaction of the M0166-F10 hIgG1 with human MMP-9. The Ki was measured and the inhibition mechanism was determined.
Materials: [0427] Substrate: Mca-KPLGL-Dap(Dnp)-AR-NH₂ (M-2350) from BACHEM (521575). A 10 mM stock solution was prepared in DMSO. [0428] Human MMP-9 catalytic domain (BIOMOL, SE-244), stock solution at 0.24 mg/ml. [0429] M0166-F10 hIgG1: 2551-095. Dialysed against TCN. Stock solution at 0.226 mg/ml. [0430] Experiments were performed in TCNB: 50 mM Tris/HCl, 10 mM CaCl₂, 150 mM NaCl, 0.05% Brij 35, pH 7.5. [0431] 96-well black plates from Perkin Elmer (6005270). [0432] Spectramax M2e to measure fluorescence emission of the substrate upon hydrolysis (temperature control set at 30° C.; λexc=328 nm and λₑₘ=393 nm).
Procedure: [0434] 90 μl of the enzyme (final concentration=0.6 nM) was preincubated with 90 μl of various concentrations (0-100 nM final) of M0166-F10 for 1.5 h at 30° C. 20 μl the substrate was then added to a final concentration ranging from 3 to 15 μM, and initial rates were recorded. [0435] Each data point was measured in triplicate, and initial rates were averaged. […] Averaged initial rates were plotted against the M0166-F10 concentration for each substrate concentration, and IC₅₀'s were calculated using the following equation: […]

[7] = biological target: T2, human MMP-1 (human, UniProt P03956 100-269, limits assumed); assay: cell-based or functional assay
T2 sequence (looked up): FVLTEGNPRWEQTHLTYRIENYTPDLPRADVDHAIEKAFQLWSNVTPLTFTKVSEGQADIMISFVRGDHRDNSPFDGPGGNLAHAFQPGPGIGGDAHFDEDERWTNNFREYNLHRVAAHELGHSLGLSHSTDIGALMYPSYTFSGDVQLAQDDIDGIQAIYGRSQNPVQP

[8] = biological target: human MMP-12 (human, UniProt P39900 106-268, limits assumed); assay: cell-based or functional assay
[9] = biological target: T3, human MMP-7 (human, UniProt P09237 95-267); assay: cell-based or functional assay
T3 sequence (looked up): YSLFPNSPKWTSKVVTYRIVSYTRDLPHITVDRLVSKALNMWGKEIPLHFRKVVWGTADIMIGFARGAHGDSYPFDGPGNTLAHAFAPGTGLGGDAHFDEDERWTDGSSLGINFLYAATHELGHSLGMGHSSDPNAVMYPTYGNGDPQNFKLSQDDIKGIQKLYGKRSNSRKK

[10] = biological target: human MMP-2 (human, UniProt P08253 110-452, limits assumed); assay: cell-based or functional assay
[11] = biological target: mouse MMP-2 (mouse, UniProt P33434 30-662, limits assumed); assay: cell-based or functional assay
[12] = biological target: human MMP-8 (human, UniProt P22894 100-262, limits assumed); assay: cell-based or functional assay
[13] = biological target: human MMP-13 (human, UniProt P45452 104-274); assay: cell-based or functional assay
[14] = biological target: human MMP-14 (human, UniProt P50281 112-284, limits assumed); assay: cell-based or functional assay
[15] = biological target: mouse MMP-9 (mouse, UniProt P41245 20-730, limits assumed); assay: cell-based or functional assay
[16] = biological target: human MMP-10 (human, UniProt P09238 99-271, limits assumed); assay: cell-based or functional assay
[17] = biological target: human MMP-3 (human, UniProt P08254 100-272, limits assumed); assay: cell-based or functional assay
Chain of human MMP-3 (P08254 100-272 limits assumed): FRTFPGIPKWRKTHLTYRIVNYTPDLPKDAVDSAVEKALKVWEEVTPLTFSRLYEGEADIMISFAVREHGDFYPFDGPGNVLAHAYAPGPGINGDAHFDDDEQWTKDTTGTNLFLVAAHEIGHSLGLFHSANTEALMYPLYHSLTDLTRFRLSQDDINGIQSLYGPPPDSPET

T1 sequence (P14780 107-445 limits assumed): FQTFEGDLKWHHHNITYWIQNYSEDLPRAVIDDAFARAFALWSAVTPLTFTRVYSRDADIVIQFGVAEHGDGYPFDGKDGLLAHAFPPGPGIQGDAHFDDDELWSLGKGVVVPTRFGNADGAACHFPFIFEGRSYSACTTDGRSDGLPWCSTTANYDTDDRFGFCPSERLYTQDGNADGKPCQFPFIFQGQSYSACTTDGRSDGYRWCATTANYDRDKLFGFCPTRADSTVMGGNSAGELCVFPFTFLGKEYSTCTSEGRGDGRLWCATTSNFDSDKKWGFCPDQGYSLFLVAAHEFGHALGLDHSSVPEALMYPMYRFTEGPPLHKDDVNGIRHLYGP
Chain of mouse MMP-9 (P41245 20-730 limits assumed): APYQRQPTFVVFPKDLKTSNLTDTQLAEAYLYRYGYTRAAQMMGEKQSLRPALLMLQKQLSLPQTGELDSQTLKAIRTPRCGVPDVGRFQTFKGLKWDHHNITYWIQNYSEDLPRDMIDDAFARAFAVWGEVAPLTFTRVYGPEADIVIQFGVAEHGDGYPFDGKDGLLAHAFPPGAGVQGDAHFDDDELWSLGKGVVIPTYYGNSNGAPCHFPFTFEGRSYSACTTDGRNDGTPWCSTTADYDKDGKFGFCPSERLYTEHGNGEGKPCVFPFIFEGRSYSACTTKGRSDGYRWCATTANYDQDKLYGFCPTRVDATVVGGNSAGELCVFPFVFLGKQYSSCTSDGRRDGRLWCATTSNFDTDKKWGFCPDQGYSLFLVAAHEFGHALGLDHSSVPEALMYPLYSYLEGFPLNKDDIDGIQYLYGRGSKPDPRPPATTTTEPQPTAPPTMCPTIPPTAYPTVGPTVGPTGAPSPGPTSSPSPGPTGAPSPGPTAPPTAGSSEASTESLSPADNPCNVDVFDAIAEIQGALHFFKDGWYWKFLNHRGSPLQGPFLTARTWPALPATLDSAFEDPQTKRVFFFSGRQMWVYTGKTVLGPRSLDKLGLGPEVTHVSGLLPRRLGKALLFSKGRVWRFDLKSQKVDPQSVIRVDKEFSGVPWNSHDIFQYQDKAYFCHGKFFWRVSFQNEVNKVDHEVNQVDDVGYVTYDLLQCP
Chain of human MMP-8 (P22894 100-262 limits assumed): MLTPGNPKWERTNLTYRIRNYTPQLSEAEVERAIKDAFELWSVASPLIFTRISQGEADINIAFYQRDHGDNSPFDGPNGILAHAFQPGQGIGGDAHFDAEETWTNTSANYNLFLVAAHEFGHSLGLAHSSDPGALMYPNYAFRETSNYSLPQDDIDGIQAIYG
Chain of mouse MMP-2 (P33434 30-662 limits assumed): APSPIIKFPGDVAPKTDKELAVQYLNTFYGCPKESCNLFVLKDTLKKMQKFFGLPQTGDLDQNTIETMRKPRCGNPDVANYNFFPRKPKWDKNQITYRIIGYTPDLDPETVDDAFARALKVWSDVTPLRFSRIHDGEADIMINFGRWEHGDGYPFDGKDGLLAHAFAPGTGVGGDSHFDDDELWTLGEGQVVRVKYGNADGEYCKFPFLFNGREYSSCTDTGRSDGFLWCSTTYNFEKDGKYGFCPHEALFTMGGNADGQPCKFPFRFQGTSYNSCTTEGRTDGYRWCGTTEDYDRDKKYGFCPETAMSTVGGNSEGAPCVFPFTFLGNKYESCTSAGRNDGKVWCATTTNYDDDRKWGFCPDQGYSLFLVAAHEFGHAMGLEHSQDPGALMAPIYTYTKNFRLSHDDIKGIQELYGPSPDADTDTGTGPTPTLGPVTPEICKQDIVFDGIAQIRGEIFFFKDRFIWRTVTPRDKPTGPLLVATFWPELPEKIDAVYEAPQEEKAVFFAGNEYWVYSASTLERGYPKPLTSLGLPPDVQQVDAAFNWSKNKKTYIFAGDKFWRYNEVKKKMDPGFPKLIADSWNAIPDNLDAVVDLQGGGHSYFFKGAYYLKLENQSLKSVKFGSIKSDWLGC
Chain of human MMP-2 (P08253 110-452 limits assumed): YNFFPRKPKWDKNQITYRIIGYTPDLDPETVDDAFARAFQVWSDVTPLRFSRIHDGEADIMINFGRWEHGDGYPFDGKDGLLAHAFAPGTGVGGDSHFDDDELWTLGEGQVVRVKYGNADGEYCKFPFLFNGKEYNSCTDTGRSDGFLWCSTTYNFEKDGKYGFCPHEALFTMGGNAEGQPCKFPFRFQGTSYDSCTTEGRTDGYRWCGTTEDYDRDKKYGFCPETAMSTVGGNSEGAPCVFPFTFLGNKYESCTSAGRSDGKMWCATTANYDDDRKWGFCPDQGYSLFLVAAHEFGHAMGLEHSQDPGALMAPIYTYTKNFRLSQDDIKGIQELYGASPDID
Chain of human MMP-10 (P09238 99-271 limits assumed): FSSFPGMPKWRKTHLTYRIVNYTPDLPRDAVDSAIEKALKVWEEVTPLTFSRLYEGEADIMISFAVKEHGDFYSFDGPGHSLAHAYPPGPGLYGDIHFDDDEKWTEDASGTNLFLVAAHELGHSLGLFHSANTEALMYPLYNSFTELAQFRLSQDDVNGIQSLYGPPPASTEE
Chain of human MMP-12 (P39900 106-268 limits assumed): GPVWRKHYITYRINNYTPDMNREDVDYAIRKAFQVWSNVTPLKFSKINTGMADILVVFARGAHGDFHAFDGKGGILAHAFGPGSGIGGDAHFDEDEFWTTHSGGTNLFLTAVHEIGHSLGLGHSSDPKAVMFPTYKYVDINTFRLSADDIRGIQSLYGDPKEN
Chain of human MMP-9 (P14780 107-707 limits assumed): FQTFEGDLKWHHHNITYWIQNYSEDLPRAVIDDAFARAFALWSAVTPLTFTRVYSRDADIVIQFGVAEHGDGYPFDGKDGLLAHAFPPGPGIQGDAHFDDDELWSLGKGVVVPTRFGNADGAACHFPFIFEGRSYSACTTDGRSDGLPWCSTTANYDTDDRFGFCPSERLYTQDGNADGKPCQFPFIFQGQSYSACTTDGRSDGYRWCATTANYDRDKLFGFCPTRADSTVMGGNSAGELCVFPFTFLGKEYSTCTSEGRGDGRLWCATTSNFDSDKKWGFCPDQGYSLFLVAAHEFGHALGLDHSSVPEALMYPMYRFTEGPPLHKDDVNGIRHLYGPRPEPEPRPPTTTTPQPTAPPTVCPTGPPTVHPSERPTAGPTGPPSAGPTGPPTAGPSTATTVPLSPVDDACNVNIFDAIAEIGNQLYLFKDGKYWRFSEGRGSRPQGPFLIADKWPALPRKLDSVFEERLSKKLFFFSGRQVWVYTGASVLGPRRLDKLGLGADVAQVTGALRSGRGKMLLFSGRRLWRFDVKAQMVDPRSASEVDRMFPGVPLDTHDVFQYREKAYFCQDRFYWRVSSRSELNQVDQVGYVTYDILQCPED

IC50, inhibition of MMP-9 activity [1]: 1.8 nM
B1: 539A-M0166-F10 (format not stated: Fab or hIgG-1) (antibody, V domains shown)
VH: EVQLLESGGGLVQPGGSLRLSCAASGFTFSPYLMNWVRQAPGKGLEWVSSIYSSGGGTGYADSVKGRFTISRDNSKNTLYLQMNSLRAEDTAVYYCARIYHSSSGPFYGMDVWGQGTTVTVSS
VL: AQSELTQPPSASAAPGQRVTISCSGSSSNIGSNTVTWYQKLPGTAPKLLIYNNYERPSGVPARFSGSKSGTSASLAISGLQSEDEADYYCATWDDSLIANYVFGSGTKVTVLG

IC50 on human MMP-9 activity (fluorogenic substrate, 10 µM) [2]: 4.3 nM
IC50 (inhibition of enzyme activity, 3 µM substrate M-2350, 0.6 nM enzyme); unit from the concentration axis [panel 3µM] [3]: 2.16 nM
IC50 (inhibition of enzyme activity, 5 µM substrate M-2350, 0.6 nM enzyme); unit from the concentration axis [panel 5µM] [3]: 2.45 nM
IC50 (inhibition of enzyme activity, 7.5 µM substrate M-2350, 0.6 nM enzyme); unit from the concentration axis [panel 7.5µM] [3]: 4.22 nM
IC50 (inhibition of enzyme activity, 10 µM substrate M-2350, 0.6 nM enzyme); unit from the concentration axis [panel 10µM] [3]: 3.99 nM
IC50 (inhibition of enzyme activity, 12.5 µM substrate M-2350, 0.6 nM enzyme) [panel 12.5µM] [3]: 5.35 nM
IC50 (inhibition of enzyme activity, 15 µM substrate M-2350, 0.6 nM enzyme); unit from the concentration axis [panel 15µM] [3]: 7.06 nM
a (intercept) of the linear fit of IC50 (nM) against M-2350 substrate concentration (µM); unit taken from the IC50 axis [4]: 0.586 nM
b (gradient) of the linear fit of IC50 (nM) against M-2350 substrate concentration (µM); unit not given [4]: 0.39
residual enzyme activity in the presence of 1 µM antibody, 10 µM fluorogenic peptide substrate (unit not given) [5]: 4
Ki [6]: 0.3 nM
B2: 539A-M0166-F10 hIgG1 (antibody, V domains shown)
VH: B1 VH
VL: QSELTQPPSASAAPGQRVTISCSGSSSNIGSNTVTWYQKLPGTAPKLLIYNNYERPSGVPARFSGSKSGTSASLAISGLQSEDEADYYCATWDDSLIANYVFGSGTKVTVLG
notes: Human IgG1; also called DL15

IC50 on human MMP-9 activity (fluorogenic substrate, 10 µM) [2]: ~33 nM
residual enzyme activity in the presence of 1 µM antibody, 10 µM fluorogenic peptide substrate (unit not given) [7]: 104
residual enzyme activity in the presence of 1 µM antibody, 10 µM fluorogenic peptide substrate (unit not given) [8]: 90
residual enzyme activity in the presence of 1 µM antibody, 10 µM fluorogenic peptide substrate (unit not given) [9]: 93
residual enzyme activity in the presence of 1 µM antibody, 10 µM fluorogenic peptide substrate (unit not given) [10]: 126
residual enzyme activity in the presence of 1 µM antibody, 10 µM fluorogenic peptide substrate (unit not given) [11]: 113
residual enzyme activity in the presence of 1 µM antibody, 10 µM fluorogenic peptide substrate (unit not given) [12]: 100
residual enzyme activity in the presence of 1 µM antibody, 10 µM fluorogenic peptide substrate (unit not given) [13]: 106
residual enzyme activity in the presence of 1 µM antibody, 10 µM fluorogenic peptide substrate (unit not given) [5]: 8
residual enzyme activity in the presence of 1 µM antibody, 10 µM fluorogenic peptide substrate (unit not given) [14]: 115
residual enzyme activity in the presence of 1 µM antibody, 10 µM fluorogenic peptide substrate (unit not given) [15]: 94
residual enzyme activity in the presence of 1 µM antibody, 10 µM fluorogenic peptide substrate (unit not given) [16]: 102
residual enzyme activity in the presence of 1 µM antibody, 10 µM fluorogenic peptide substrate (unit not given) [17]: 82
B3: 539A-M0166-F10 Fab (Fab, V domains shown)
VH: B1 VH
VL: B1 VL
